This assay concerns LKS^− cells. The experiment in a line: Serum-free culture of LKS- myeloid/erythroid progenitors (and CMP, GMP subsets), F4/80 by flow cytometry. Format: cell-based, mouse. Particulars: 72 h, no other growth factors. As to the method: FIGS. 4A-D—Activation of TLRs through MyD88 bypasses normal differentiation cues and drives monocytes/macrophages differentiation of myeloid progenitors. (FIG. 4A) Sorted LKS^− cells from C57BL/6 or MyD88^−/− mice were stimulated with medium alone, LPS (10 μg/ml), Pam3CSK4 (1 μg/ml), M-CSF, or GM-CSF. After 72 h in culture, cells were analyzed by flow cytometry for expression of F4/80. Open histograms depict staining with the isotype matched Ab for F4/80. Percentages given in each histogram indicate the frequencies of F4/80^+ cells and the results are representative of three independent experiments. (FIG. 4B) The bar graph depicts yields, i.e., numbers of F4/80^+ cell recovered per input progenitor. Data represent mean values with standard deviations from triplicate cultures and the results are representative of three independent experiments (*P<0.005). […] After 72 h in culture, cells were analyzed by flow cytometry for expression of F4/80. […] After 24 or 48 h in culture, cells were analyzed by flow cytometry for expression of F4/80. […]
FIG. 13—TLR stimulation causes rapid production of F4/80^+ cells from LKS^− cells. […] Stimulated wells were analyzed after 24 h or 48 h of culture by flow cytometry for expression of F4/80. […]

B1: GM-CSF: Recombinant mouse GM-CSF, colony stimulating factor, 20 ng/ml (protein, UniProt P01587 18-141, looked up)
Granulocyte-macrophage …: APTRSPITVTRPWKHVEAIKEALNLLDDMPVTLNEEVEVVSNEFSFKKLTCVQTRLKIFEQGLRGNFTKLKGALNMTASYYQTYCPPTPETDCETQVTTYADFIDSLKTFLTDIPFECKKPGQK
As to B1, the “Acquisition of F4/80 by LKS- cells” value was “only a subset of LKS^− myeloid progenitors responded”.

Source of the values: US7592003B2, “Regulation of toll-like receptors on stem cells” (Oklahoma Medical Research Foundation, priority 2005, dated 2009).
